The values below are quoted from earlier work in patent US20060105948A1, “GLP-2 derivatives” (Novo Nordisk A/S, priority 2003, published 2006).

Data set [1] deals with (DS)-induced colitis in mice. As to conditions: 350 ng or 750 ng s.c. twice daily for 9-10 days.
The conditions of data set [2]: humans.
For data set [3] the following is noted: in vivo.
Where [4] appears, read: s.c. injection 400 mg = 106.000 pmol.

Take “A2G-GLP-2(1-33) (HGDGSFSDEMNTILDNLAARDFINWLIQTKITD; Glucagon-like peptide 2; UniProt P01275 146-178, looked up, variant A2G) [GLP-2 peptide analog with Ala2 replaced by Gly]”: the histology of colon result in data set [1] (DS mice) is “greater proportion of intact mucosal epithelium, increased colon length, crypt depth and mucosal area”. In data set [1] (mice on 5% DS in drinking water), the body weight loss result is given as “lost significantly less body weight”.
On to GLP-2(1-33), for which the “T½ value of elimination” value in data set [2] (GLP-2 infusion 0.8 pmol/kg * min) is reported as 7 min. The “plasma level of intact GLP-2(1-33) reached on infusion” value in data set [2] (GLP-2 infusion 0.8 pmol/kg * min, increasing from 9 pM) is 131 pM. For the same substance, the “injected GLP-2(1-33) still intact” value in data set [2] (one hour after the s.c. injection) is given as 69%. Besides, in data set [2] (setting [4]), the maximum plasma concentration is on record as 1500 pM and the “time of maximum plasma concentration” value is recorded as 45 min. The biological half-life result in data set [3] is on record as “about 7 min”.
